What was measured:
Conditions in all cases: both partners purified
[1] = target: T1, ACAD9_(S191A) (human, UniProt Q9H845 38-621, S191A); experiment: ITC; 25 °C; ACAD9 at 49 uM in the cell, titrated with ECSIT at 300 uM; 50 mM Tris-HCl pH 7.5, 250 mM NaCl
T1 construct: human ACAD9, residues 38-621, S191A; One FAD per protomer in the cryo-EM structure; source: E. coli C43 (DE3), purified (HisTrap, dialysed in SEC buffer)
T1 sequence (looked up): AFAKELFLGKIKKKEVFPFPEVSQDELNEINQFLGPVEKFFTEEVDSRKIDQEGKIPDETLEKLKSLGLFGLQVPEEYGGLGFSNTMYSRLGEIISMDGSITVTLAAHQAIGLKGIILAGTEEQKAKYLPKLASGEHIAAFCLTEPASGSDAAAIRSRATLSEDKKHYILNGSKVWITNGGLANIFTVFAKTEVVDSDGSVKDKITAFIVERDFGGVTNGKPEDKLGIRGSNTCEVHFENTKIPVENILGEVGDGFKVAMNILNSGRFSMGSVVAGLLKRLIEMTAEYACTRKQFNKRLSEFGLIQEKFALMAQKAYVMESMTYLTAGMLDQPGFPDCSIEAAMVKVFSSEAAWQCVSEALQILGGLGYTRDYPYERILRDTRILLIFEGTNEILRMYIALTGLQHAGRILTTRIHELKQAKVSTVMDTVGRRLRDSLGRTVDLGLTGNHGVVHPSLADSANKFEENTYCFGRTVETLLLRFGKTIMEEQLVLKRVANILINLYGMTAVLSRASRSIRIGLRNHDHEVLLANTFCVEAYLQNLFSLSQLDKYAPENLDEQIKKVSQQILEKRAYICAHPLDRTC

[2] = target: T2, ACAD9_(A184S) (human, UniProt Q9H845 38-621, A184S); experiment: dynamic light scattering; 278 K, protein at 1-2 mg/ml; complexes reconstituted at molar ratio 1:1.25
T2 construct: human ACAD9, residues 38-621, A184S (mimics the VLCAD gatekeeper loop); source: E. coli C43 (DE3), purified (HisTrap, dialysed in SEC buffer)
T2 sequence (looked up): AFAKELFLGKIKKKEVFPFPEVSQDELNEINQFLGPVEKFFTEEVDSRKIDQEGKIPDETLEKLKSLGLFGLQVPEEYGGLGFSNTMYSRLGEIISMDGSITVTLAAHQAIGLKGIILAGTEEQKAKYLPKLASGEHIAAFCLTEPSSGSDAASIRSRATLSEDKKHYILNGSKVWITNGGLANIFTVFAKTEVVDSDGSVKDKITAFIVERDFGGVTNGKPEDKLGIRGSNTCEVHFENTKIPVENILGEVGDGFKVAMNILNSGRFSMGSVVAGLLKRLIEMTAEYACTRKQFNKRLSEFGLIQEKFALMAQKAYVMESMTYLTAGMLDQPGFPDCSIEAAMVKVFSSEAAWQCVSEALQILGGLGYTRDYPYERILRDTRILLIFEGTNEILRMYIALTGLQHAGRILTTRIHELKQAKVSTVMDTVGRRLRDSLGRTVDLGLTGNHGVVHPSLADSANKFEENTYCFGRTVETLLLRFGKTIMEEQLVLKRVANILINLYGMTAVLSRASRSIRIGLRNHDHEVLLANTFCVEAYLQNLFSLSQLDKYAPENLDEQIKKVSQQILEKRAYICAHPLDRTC

[3] = target: T3, ACAD9_(SR194TS) (human, UniProt Q9H845 38-621, SR194TS); experiment: as above
T3 construct: human ACAD9, residues 38-621, double mutant SR194TS (mimics the VLCAD gatekeeper loop); source: E. coli C43 (DE3), purified (HisTrap, dialysed in SEC buffer)
T3 sequence (looked up): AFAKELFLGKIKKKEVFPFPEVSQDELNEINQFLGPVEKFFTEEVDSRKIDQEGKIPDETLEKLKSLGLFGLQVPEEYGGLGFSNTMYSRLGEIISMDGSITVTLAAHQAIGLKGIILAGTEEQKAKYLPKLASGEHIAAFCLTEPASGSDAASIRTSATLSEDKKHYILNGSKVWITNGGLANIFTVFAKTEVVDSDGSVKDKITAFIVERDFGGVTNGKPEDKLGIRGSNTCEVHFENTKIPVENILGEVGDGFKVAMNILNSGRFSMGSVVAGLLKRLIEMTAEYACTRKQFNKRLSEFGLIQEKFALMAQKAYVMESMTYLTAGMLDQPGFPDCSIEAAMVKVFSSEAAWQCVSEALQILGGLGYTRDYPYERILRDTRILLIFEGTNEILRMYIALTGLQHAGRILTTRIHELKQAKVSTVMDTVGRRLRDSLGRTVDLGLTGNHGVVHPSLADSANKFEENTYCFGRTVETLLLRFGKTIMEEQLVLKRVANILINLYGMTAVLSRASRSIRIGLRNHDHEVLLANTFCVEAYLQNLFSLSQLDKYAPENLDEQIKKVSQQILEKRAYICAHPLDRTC

[4] = target: T4, ACAD9WT (mature ACAD9, residues 38-621) (human, UniProt Q9H845 38-621); experiment: cryo-EM structure; ACAD9WT-ECSIT_(CTER) reconstituted (molar ratio 1:1.25) and purified by gel filtration; 25 mM HEPES, 300 mM NaCl, 1 mM TCEP, pH 7.5; C2 symmetry imposed
T4 construct: human ACAD9, mature form, residues 38-621; E. coli codon-optimised synthetic gene; Cloned into pET-21d(+); Plasmid details are in Supplementary Data 1; source: E. coli C43 (DE3), purified (HisTrap, dialysed in SEC buffer)
T4 sequence (looked up): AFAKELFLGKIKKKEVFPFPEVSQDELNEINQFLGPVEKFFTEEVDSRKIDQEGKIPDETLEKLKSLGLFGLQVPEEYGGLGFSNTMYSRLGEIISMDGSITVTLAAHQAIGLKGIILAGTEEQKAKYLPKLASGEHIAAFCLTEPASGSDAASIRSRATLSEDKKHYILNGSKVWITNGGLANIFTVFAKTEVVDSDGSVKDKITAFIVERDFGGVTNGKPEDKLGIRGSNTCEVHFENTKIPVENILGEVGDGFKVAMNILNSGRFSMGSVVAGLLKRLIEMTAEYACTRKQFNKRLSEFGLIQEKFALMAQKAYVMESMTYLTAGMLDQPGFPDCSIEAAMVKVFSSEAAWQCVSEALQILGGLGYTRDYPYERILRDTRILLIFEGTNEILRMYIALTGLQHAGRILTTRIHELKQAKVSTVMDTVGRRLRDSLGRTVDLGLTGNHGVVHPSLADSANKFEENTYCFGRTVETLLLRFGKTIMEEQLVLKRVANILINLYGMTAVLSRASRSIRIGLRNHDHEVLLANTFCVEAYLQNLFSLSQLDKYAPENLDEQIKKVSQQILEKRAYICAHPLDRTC

[5] = target: T5, ACAD9_(A184S/SR194TS) (human, UniProt Q9H845 38-621, A184S | SR194TS); experiment: mass photometry; ACAD9 (or VLCAD) at 20-50 nM in 25 mM HEPES pH 7.5, 250 mM NaCl, or diluted in 4.8 uM ECSIT solution for complex formation
T5 construct: human ACAD9, residues 38-621, A184S and SR194TS combined (mimics the VLCAD gatekeeper loop); source: E. coli C43 (DE3), purified (HisTrap, dialysed in SEC buffer)
T5 sequence (looked up): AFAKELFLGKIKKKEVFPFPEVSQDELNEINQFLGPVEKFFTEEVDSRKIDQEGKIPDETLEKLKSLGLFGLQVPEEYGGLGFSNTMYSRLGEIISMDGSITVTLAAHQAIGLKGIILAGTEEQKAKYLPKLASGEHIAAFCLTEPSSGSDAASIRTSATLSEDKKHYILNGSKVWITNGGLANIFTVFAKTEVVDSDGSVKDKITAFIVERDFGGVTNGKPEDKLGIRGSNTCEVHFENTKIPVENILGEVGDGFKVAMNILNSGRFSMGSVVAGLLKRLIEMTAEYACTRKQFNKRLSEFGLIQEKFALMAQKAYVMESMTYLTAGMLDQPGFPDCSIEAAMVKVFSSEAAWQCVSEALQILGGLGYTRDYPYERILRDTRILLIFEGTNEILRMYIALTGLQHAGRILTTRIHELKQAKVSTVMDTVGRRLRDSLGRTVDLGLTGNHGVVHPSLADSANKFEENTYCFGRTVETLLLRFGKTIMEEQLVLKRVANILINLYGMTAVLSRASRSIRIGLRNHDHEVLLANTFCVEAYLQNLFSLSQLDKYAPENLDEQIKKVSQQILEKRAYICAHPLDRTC

Kd [1]: 3.93 µM | fold decrease in fold change against ACAD9WT-ECSIT_(CTER) [1]: ~3 fold | binding result [2]: binds | binding result [3]: binds | stoichiometry N [4]: 1 ECSIT_(CTER) per ACAD9 protomer | binding result [5]: binds
B1: ECSIT_(CTER) (residues 221-431) (domain or fragment, human, UniProt Q9BQ95 221-431, looked up)
chain: QDPVELAMFGLRHMEPDLSARVTIYQVPLPKDSTGAADPPQPHIVGIQSPDQQAALARHNPARPVFVEGPFSLWLRNKCVYYHILRADLLPPEEREVEETPEEWNLYYPMQLDLEYVRSGWDNYEFDINEVEEGPVFAMCMAGAHDQATMAKWIQGLQETNPTLAQIPVVFRLAGSTRELQTSSAGLEEPPLPEDHQEEDDNLQRQQQGQS
notes: human ECSIT, residues 221-431; E. coli codon-optimised synthetic gene; Only residues 320-334 are modelled in the cryo-EM map; Plasmid details are in Supplementary Data 1; also called C-terminal ECSIT; source: E. coli BL21 Star (DE3), purified (HisTrap, SEC)
